The text below walks through data of the supplement of paper PMC9112550, “Optimization of the antimicrobial peptide Bac7 by deep mutational scanning” (BMC Biology, 2022).

This series deals with Escherichia coli TOP10. The experiment in a line: shrunken log2 fold change of peptide-encoding DNA abundance (4.5 h post-induction vs induction); higher = less antimicrobial activity (less host growth inhibition). The note with it: time post-induction: 4.5 h; library: site-saturation at positions 5, 18, 19, 20.
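Note: peptides expressed intracellularly from a pBAD plasmid library in pooled LB shake-flask culture, induced with 0.3% L-arabinose, DNA abundance read by NGS, three biological replicates, DESeq2 with apeglm shrinkage.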

As to RRIRFRPPRLPRPRPRPGNCPRP, the “shrunken log2 fold change” value stood at 0.0888. As to RRIRCRPPRLPRPRPRPICDPRP, the “shrunken log2 fold change” value was -0.0093. Regarding RRIRERPPRLPRPRPRPDYAPRP, the “shrunken log2 fold change” value was -0.0187. Regarding RRIRGRPPRLPRPRPRPHFIPRP, the “shrunken log2 fold change” value is -0.139. With RRIRERPPRLPRPRPRPITNPRP the figure was -0.409; with RRIRIRPPRLPRPRPRPITEPRP, -1.09. Regarding RRIRARPPRLPRPRPRPLGNPRP, the “shrunken log2 fold change” value turned out to be 0.0331. RRIRMRPPRLPRPRPRPYFWPRP: the “shrunken log2 fold change” value is -0.13. With RRIRIRPPRLPRPRPRPPIDPRP the figure was -0.724; with RRIRGRPPRLPRPRPRPPDLPRP, 0.791. Turning to RRIRYRPPRLPRPRPRPHQWPRP, the “shrunken log2 fold change” value was -0.649. For RRIRMRPPRLPRPRPRPEIGPRP, the “shrunken log2 fold change” value was 2.62.

RRIRHRPPRLPRPRPRPWAKPRP: the “shrunken log2 fold change” value is -0.235. Consider RRIRLRPPRLPRPRPRPGKQPRP, for which the “shrunken log2 fold change” value is 0.0284. The result for RRIRVRPPRLPRPRPRPAANPRP reads -0.00167; that for RRIRIRPPRLPRPRPRPKSTPRP, -0.214. As to RRIRGRPPRLPRPRPRPLEKPRP, the “shrunken log2 fold change” value amounted to 0.725.

With RRIRYRPPRLPRPRPRPMWKPRP, the “shrunken log2 fold change” value is -0.00663. For RRIRSRPPRLPRPRPRPSTPPRP, the “shrunken log2 fold change” value is -0.0374. Turning to RRIRGRPPRLPRPRPRPLNIPRP, the “shrunken log2 fold change” value was -0.148. The result for RRIRNRPPRLPRPRPRPRMLPRP reads 0.132; that for RRIRIRPPRLPRPRPRPEMGPRP, -0.105. For the sequence RRIRFRPPRLPRPRPRPQHMPRP, the “shrunken log2 fold change” value was -0.615. On to RRIRTRPPRLPRPRPRPTSYPRP, for which the “shrunken log2 fold change” value is -0.268. Turning to RRIRYRPPRLPRPRPRPMVRPRP, the “shrunken log2 fold change” value was -0.0135. Turning to RRIRWRPPRLPRPRPRPVSRPRP, the “shrunken log2 fold change” value is 0.616.

For RRIRIRPPRLPRPRPRPTVIPRP, the “shrunken log2 fold change” value was -0.108. In the case of RRIRNRPPRLPRPRPRPQVQPRP, the “shrunken log2 fold change” value was -0.524. As for RRIRDRPPRLPRPRPRPMVSPRP, the “shrunken log2 fold change” value was -0.00166. Regarding RRIRYRPPRLPRPRPRPQMSPRP, the “shrunken log2 fold change” value was -0.0435. As to RRIRYRPPRLPRPRPRPSDWPRP, the “shrunken log2 fold change” value was -0.152.

For the sequence RRIRMRPPRLPRPRPRPWENPRP, the “shrunken log2 fold change” value is -0.0294.

Take RRIRRRPPRLPRPRPRPAPLPRP: the “shrunken log2 fold change” value was 0.857. Consider RRIRDRPPRLPRPRPRPYLYPRP, for which the “shrunken log2 fold change” value is -0.0408. Take RRIRERPPRLPRPRPRPDNFPRP: the “shrunken log2 fold change” value is 0.00707.

As for RRIRWRPPRLPRPRPRPKRQPRP, the “shrunken log2 fold change” value was found to be 0.167. In the case of RRIRIRPPRLPRPRPRPYCDPRP, the “shrunken log2 fold change” value was -0.0269. Regarding RRIRYRPPRLPRPRPRPHIDPRP, the “shrunken log2 fold change” value was -1.95. Take RRIRMRPPRLPRPRPRPTKEPRP: the “shrunken log2 fold change” value was -0.0201. Take RRIRVRPPRLPRPRPRPISPPRP: the “shrunken log2 fold change” value was 0.129. With RRIRTRPPRLPRPRPRPGDKPRP, the “shrunken log2 fold change” value came out at 0.137. Regarding RRIRPRPPRLPRPRPRPWWYPRP, the “shrunken log2 fold change” value was -0.121.

For RRIRARPPRLPRPRPRPHWFPRP, the “shrunken log2 fold change” value came out at 0.0804.

In the case of RRIRSRPPRLPRPRPRPYSLPRP, the “shrunken log2 fold change” value was -0.35. RRIRKRPPRLPRPRPRPNQLPRP: the “shrunken log2 fold change” value is -0.33.

Consider RRIRLRPPRLPRPRPRPFPSPRP, for which the “shrunken log2 fold change” value was -0.173.

As for RRIRSRPPRLPRPRPRPHEDPRP, the “shrunken log2 fold change” value was 0.132. On to RRIRERPPRLPRPRPRPPAQPRP, for which the “shrunken log2 fold change” value was determined as 0.0318.

For the sequence RRIRTRPPRLPRPRPRPFIEPRP, the “shrunken log2 fold change” value is -0.553. On to RRIRHRPPRLPRPRPRPCSHPRP, for which the “shrunken log2 fold change” value was -0.0787. With RRIRSRPPRLPRPRPRPHQNPRP the figure was -0.0421; with RRIRLRPPRLPRPRPRPLNDPRP, -0.0903; with RRIRRRPPRLPRPRPRPTSEPRP, 0.372. With RRIRRRPPRLPRPRPRPSTYPRP, the “shrunken log2 fold change” value is -0.418. For RRIRMRPPRLPRPRPRPHEMPRP, the “shrunken log2 fold change” value was found to be 0.0891. The result for RRIRYRPPRLPRPRPRPGATPRP reads 0.128; that for RRIRGRPPRLPRPRPRPFIHPRP, 0.0282. As to RRIRIRPPRLPRPRPRPRMDPRP, the “shrunken log2 fold change” value is -0.389. As to RRIRCRPPRLPRPRPRPLKKPRP, the “shrunken log2 fold change” value is -0.26. Regarding RRIRMRPPRLPRPRPRPIITPRP, the “shrunken log2 fold change” value is -0.512. For RRIRSRPPRLPRPRPRPTKDPRP, the “shrunken log2 fold change” value was -0.105. The result for RRIRPRPPRLPRPRPRPSPNPRP reads 1.14; that for RRIRNRPPRLPRPRPRPRNVPRP, -0.3. RRIRARPPRLPRPRPRPTSPPRP: the “shrunken log2 fold change” value came out at 0.292.

For the sequence RRIRKRPPRLPRPRPRPIKQPRP, the “shrunken log2 fold change” value was -0.089. For the sequence RRIRTRPPRLPRPRPRPNGFPRP, the “shrunken log2 fold change” value is -0.0646. Regarding RRIRKRPPRLPRPRPRPGSMPRP, the “shrunken log2 fold change” value was found to be 0.285. As for RRIRKRPPRLPRPRPRPIYNPRP, the “shrunken log2 fold change” value was -0.0567. For the sequence RRIRKRPPRLPRPRPRPLYRPRP, the “shrunken log2 fold change” value is -0.0664.

For RRIRKRPPRLPRPRPRPAPYPRP, the “shrunken log2 fold change” value came out at 0.212. As to RRIRERPPRLPRPRPRPQHVPRP, the “shrunken log2 fold change” value was -0.356. In the case of RRIRVRPPRLPRPRPRPDFCPRP, the “shrunken log2 fold change” value worked out at 0.183.

For RRIRDRPPRLPRPRPRPLSRPRP, the “shrunken log2 fold change” value is -0.113. As for RRIRGRPPRLPRPRPRPENPPRP, the “shrunken log2 fold change” value is 0.842. The result for RRIRPRPPRLPRPRPRPEDNPRP reads -0.0402. Take RRIRARPPRLPRPRPRPKQEPRP: the “shrunken log2 fold change” value came to 0.254. As to RRIRHRPPRLPRPRPRPKHGPRP, the “shrunken log2 fold change” value was 0.109.

For RRIRRRPPRLPRPRPRPYIFPRP, the “shrunken log2 fold change” value was -0.639.

Consider RRIRDRPPRLPRPRPRPPFTPRP, for which the “shrunken log2 fold change” value came to 1.76. The result for RRIRARPPRLPRPRPRPNNKPRP reads -0.29; that for RRIRCRPPRLPRPRPRPIFVPRP, -0.284; that for RRIRCRPPRLPRPRPRPCKTPRP, -0.0345. In the case of RRIRGRPPRLPRPRPRPKQRPRP, the “shrunken log2 fold change” value worked out at 0.471.

For RRIRWRPPRLPRPRPRPIIGPRP, the “shrunken log2 fold change” value amounted to 0.0626.

As to RRIRQRPPRLPRPRPRPTCHPRP, the “shrunken log2 fold change” value was -0.552. As for RRIRERPPRLPRPRPRPFRFPRP, the “shrunken log2 fold change” value is -0.185. RRIRWRPPRLPRPRPRPVKDPRP: the “shrunken log2 fold change” value is -0.0234. Regarding RRIRCRPPRLPRPRPRPIDRPRP, the “shrunken log2 fold change” value is -0.0643. Regarding RRIRQRPPRLPRPRPRPRPYPRP, the “shrunken log2 fold change” value is -0.357. As to RRIRDRPPRLPRPRPRPYWDPRP, the “shrunken log2 fold change” value is -0.766. Consider RRIRVRPPRLPRPRPRPWCPPRP, for which the “shrunken log2 fold change” value turned out to be 0.0662.

For RRIRMRPPRLPRPRPRPNLMPRP, the “shrunken log2 fold change” value was -0.126. On to RRIRPRPPRLPRPRPRPENWPRP, for which the “shrunken log2 fold change” value worked out at 0.264.

As to RRIRQRPPRLPRPRPRPFSKPRP, the “shrunken log2 fold change” value is -0.218. As to RRIRKRPPRLPRPRPRPPQKPRP, the “shrunken log2 fold change” value worked out at 0.682.

With RRIRMRPPRLPRPRPRPKLGPRP, the “shrunken log2 fold change” value is 0.597. Turning to RRIRKRPPRLPRPRPRPWEAPRP, the “shrunken log2 fold change” value stood at 0.0326. In the case of RRIRYRPPRLPRPRPRPYMQPRP, the “shrunken log2 fold change” value is -0.117. With RRIRTRPPRLPRPRPRPRQYPRP the figure was -0.302; with RRIRARPPRLPRPRPRPPTVPRP, 0.468; with RRIRFRPPRLPRPRPRPHHCPRP, -0.198. With RRIRQRPPRLPRPRPRPAYQPRP the figure was -0.00193; with RRIRMRPPRLPRPRPRPGDIPRP, 0.025. With RRIRGRPPRLPRPRPRPVWDPRP the figure was 0.593. In the case of RRIRMRPPRLPRPRPRPFQIPRP, the “shrunken log2 fold change” value is -0.0803. As to RRIRVRPPRLPRPRPRPILKPRP, the “shrunken log2 fold change” value was -0.203. Take RRIRPRPPRLPRPRPRPFWHPRP: the “shrunken log2 fold change” value was -0.017. Consider RRIRARPPRLPRPRPRPIFWPRP, for which the “shrunken log2 fold change” value was determined as 0.305.

For the sequence RRIRRRPPRLPRPRPRPHTMPRP, the “shrunken log2 fold change” value is -0.0621. The result for RRIRCRPPRLPRPRPRPHASPRP reads -0.224; that for RRIRQRPPRLPRPRPRPVVYPRP, 0.12; that for RRIRARPPRLPRPRPRPIACPRP, 0.0285.

RRIRARPPRLPRPRPRPGWYPRP: the “shrunken log2 fold change” value was determined as 0.437. As to RRIRMRPPRLPRPRPRPANQPRP, the “shrunken log2 fold change” value was 0.191. Regarding RRIRYRPPRLPRPRPRPKEEPRP, the “shrunken log2 fold change” value was -0.0656. With RRIRIRPPRLPRPRPRPWSGPRP the figure was -0.139.

On to RRIRDRPPRLPRPRPRPRQMPRP, for which the “shrunken log2 fold change” value was determined as 0.019. Regarding RRIRARPPRLPRPRPRPFKKPRP, the “shrunken log2 fold change” value was -0.0888.

In the case of RRIRPRPPRLPRPRPRPHEDPRP, the “shrunken log2 fold change” value is -0.0757. RRIRTRPPRLPRPRPRPFQMPRP: the “shrunken log2 fold change” value was -0.135. As to RRIRSRPPRLPRPRPRPNPLPRP, the “shrunken log2 fold change” value was found to be 0.182. For RRIRSRPPRLPRPRPRPNCIPRP, the “shrunken log2 fold change” value is -0.416. In the case of RRIRMRPPRLPRPRPRPQMKPRP, the “shrunken log2 fold change” value amounted to 0.518. With RRIRRRPPRLPRPRPRPGQAPRP, the “shrunken log2 fold change” value is 0.0103. For RRIRHRPPRLPRPRPRPWKVPRP, the “shrunken log2 fold change” value is -0.0338.
